Where two headings read alike, the source gives them in different places. Values belong to the binder of their own block, whether it stands above or below them.
Legend:
[1] = target: T1, human PD-L1 expressed on the cell surface (HEK293T-PD-L1 cells; Promega artificial APC CHO-K1 cells) (human, UniProt Q9NZQ7 19-290); assay: cell-based or functional assay
[2] = target: T1, human PD-L1 expressed on the cell …; assay: immunofluorescence imaging on HEK293T-PD-L1 cells
[3] = target: T2, human recombinant PD-L1 protein (Acro Biosystems, cat #: PD1-H5229) (human, UniProt Q9NZQ7 19-238); assay: ELISA, PD-L1 protein coated on the plate, OD 405
T2 construct: Bought protein; also called human PD-L1; recombinant human PD-L1

[4] = target: T3, cynomolgus PD-L1 protein (Acro Biosystems, cat #: PD1-C52H4) (cynomolgus, UniProt Q9NZQ7 19-238 (human entry)); assay: ELISA, PD-L1 protein coated on the plate, OD 405
T3 construct: Bought protein; also called cyno PD-L1

[5] = target: T4, mouse PD-L1 protein (Acro Biosystems, cat #: PD1-M5220) (mouse, UniProt Q9EP73 19-238); assay: ELISA, PD-L1 protein coated on the plate, OD 405
T4 construct: Bought protein; also called murine PD-L1

[6] = target: T2, human recombinant PD-L1 protein (Acro …); assay: SPR (Biacore3000), antibody captured by anti-human IgG on CM5, PD-L1 as analyte, 1:1 binding with mass transfer
[7] = target: T5, human CD137 expressed on the cell surface of HEK293T cells (human, UniProt Q07011 24-255); assay: immunofluorescence imaging on HEK293T cells expressing human CD137
T5 construct: Stably or transiently transfected HEK293T cells; also on HEK293T and Jurkat T NFκB reporter cells; also called human CD137 (WT); 4-1BB

[8] = target: T6, cynomolgus CD137 expressed on the cell surface of HEK293T cells (cynomolgus, UniProt Q07011 24-255 (human entry)); assay: immunofluorescence imaging on HEK293T cells expressing cynomolgus CD137
T6 construct: also called cyno CD137
T6 chain: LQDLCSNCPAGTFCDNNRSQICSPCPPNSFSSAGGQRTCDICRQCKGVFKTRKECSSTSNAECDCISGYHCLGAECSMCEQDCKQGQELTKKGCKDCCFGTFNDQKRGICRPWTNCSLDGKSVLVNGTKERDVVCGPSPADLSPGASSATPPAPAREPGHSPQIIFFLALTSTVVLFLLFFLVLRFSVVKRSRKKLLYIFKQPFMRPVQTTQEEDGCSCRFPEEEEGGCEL

[9] = target: T5, human CD137 expressed on the cell …; assay: immunofluorescence imaging binding assay on human CD137-expressing HEK293T cells
[10] = target: T7, mouse CD137 expressed on the cell surface of HEK293T cells (mouse, UniProt P20334 24-256); assay: immunofluorescence imaging binding assay on mouse CD137-expressing HEK293T cells
T7 construct: whole, on cells; also called murine CD137; mouse 4-1BB

[11] = target: T7, mouse CD137 expressed on the cell …; assay: as above; remark: listed apart in the source
[12] = target: T2, human recombinant PD-L1 protein (Acro …); assay: ELISA, PD-L1 protein coated on the plate, OD 405; remark: listed apart in the source
[13] = target: T3, cynomolgus PD-L1 protein (Acro …); assay: ELISA, PD-L1 protein coated on the plate, OD 405; remark: listed apart in the source
[14] = target: T4, mouse PD-L1 protein (Acro Biosystems, …); assay: ELISA, PD-L1 protein coated on the plate, OD 405; remark: listed apart in the source
[15] = target: T7, mouse CD137 expressed on the cell …; assay: immunofluorescence imaging binding assay on mouse CD137-expressing HEK293T cells; remark: listed apart in the source
[16] = target: T8, human CD137 (Sino Biological, cat #10041-H08H) (human, UniProt Q07011 24-186); assay: SPR (Biacore3000), antibody captured by anti-human IgG on CM5, CD137 as analyte, 1:1 binding with mass transfer
T8 construct: Bought protein used as the analyte in SPR; also called CD137 antigen in Biacore
T8 sequence (Q07011 24-186 limits assumed): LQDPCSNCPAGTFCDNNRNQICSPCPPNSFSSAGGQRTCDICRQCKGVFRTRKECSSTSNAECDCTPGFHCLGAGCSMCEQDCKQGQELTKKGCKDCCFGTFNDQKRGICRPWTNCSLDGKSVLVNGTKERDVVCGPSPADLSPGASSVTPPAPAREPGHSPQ

T2 sequence (Q9NZQ7 19-238 limits assumed): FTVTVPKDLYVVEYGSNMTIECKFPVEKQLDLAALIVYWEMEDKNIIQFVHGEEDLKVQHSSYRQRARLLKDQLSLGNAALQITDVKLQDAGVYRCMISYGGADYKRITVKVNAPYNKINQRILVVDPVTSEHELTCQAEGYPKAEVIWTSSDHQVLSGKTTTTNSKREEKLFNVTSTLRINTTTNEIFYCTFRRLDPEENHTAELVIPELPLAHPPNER
T7 sequence (P20334 24-256): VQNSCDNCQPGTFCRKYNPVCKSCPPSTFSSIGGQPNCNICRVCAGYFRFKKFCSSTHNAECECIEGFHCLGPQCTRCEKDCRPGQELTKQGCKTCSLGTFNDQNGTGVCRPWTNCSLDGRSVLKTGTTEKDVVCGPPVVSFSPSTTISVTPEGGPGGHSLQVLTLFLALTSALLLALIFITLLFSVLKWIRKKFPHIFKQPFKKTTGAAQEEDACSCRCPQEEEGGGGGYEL
T1 sequence (Q9NZQ7 19-290 limits assumed): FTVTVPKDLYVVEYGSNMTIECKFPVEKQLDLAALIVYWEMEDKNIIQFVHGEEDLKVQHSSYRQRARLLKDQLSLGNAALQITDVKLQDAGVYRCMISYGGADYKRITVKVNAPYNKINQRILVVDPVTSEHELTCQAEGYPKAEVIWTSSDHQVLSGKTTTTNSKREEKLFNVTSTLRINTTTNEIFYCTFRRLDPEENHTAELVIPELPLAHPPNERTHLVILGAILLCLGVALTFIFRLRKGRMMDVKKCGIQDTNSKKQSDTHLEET
T3 sequence (Q9NZQ7 other isoform, or with tags, fused parts or gaps limits assumed): as the sequence (Q9NZQ7 19-238 limits assumed) above, with A33T, A34S, S62N, R68Q, Q82R, F173L, T185A, T192I, H215L counted along it
T4 sequence (Q9EP73 19-238 limits assumed): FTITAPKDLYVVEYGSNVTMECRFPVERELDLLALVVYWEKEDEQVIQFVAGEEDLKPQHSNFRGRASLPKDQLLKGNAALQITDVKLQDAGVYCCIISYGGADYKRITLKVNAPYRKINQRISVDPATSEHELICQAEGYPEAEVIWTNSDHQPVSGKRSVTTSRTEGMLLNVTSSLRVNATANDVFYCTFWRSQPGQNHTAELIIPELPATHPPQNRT

- IC50, PD-1/PD-L1 blockade luciferase reporter assay [1]: 0.43 nM
- EC50 [2]: 0.18 nM
- EC50 [3]: 0.08 nM
- EC50 [4]: 0.07 nM
- binding result [5]: no binding
- Kd [6]: 2.95 nM
- koff [6]: 0.0024 s⁻¹
- kon [6]: 814000 M⁻¹ s⁻¹
B1: 1923Ab3 (antibody, V domains shown)
VH: QVQLVQSGAEVKKPGASVKVSCKASGYTFTSYDINWVRQATGQGLEWMGWMNPNSGITGYAQRFQGRVTMTRDTSISTAYMELSSLRSEDTAVYYCARHRWGKGYLDLWGRGTLVTVSS
VL: EIVMAQSPATLSLSPGERATLSCRASQSVSSSYLSWFQQKPGQAPRLLIYGASTRATGIPARFGGSGSGTDFTLTISSLQPEDFAVYYCQQDYNLPYTFGQGTKLEIK
notes: also called PD-L1 monospecific 1923Ab3; anti-PD-L1 antibody 1923Ab3

- EC50 [7]: 1.62 nM
- EC50 [8]: 2.77 nM
- EC50 [9]: 1.6 nM
- binding result [10]: no binding
B2: 1923Ab5 (antibody, human IgG1, V domains shown)
VH: QVQLVESGGGVVQPGRSLRLSCAASGFTFSSYGMHWVRQAPGKGLEWVAVIWYDGSNEYYADSVKGRFTISRDNSKNTLYLQMNSLRAEDTAVYYCARERWQWLVLFDYWGQGTLVTVSS
VL: EIVLTQSPATLSLSPGERATLSCRASQTITSSYLSWYQQKPGQAPRLLIYGASTRATGIPARFSGSGSGTDFTLTISSLQPEDFALYFCQQDFNLPYTFGQGTKLEIK
notes: also called CD137 monospecific 1923Ab5

- EC50 [7]: 10.5 nM
- EC50 [8]: 4.23 nM
- EC50 [9]: 11 nM
- binding result [11]: no binding
B3: 1923Ab6 (antibody, human IgG1, V domains shown)
VH: EVHLLESGGGLVQPGGSLRLSCAASGFTFSSYAMGWVRQAPGKGLEWVSIIGGGGGSTYYADSVKGRFTISRDNSKNTLYLQMNSLRAEDTAVYYCAKVGYSGTYGGWFDPWGQGTLVTVSS
VL: DIQMTQSPSSLSASIGDRVAITCRASQGISNYLAWFQQKPGKAPKSLIYAASSLQSGVPSKFSGSGSGTDFTLTISSLQPEDFATYYCQQYNSYPLTFGGGTKVEIK
notes: also called CD137 monospecific 1923Ab6

- IC50, PD-1/PD-L1 blockade luciferase reporter assay [1]: 0.9 nM
- EC50 [12]: 0.09 nM
- EC50 [13]: 0.08 nM
- binding result [14]: no binding
B4: 1923Ab2 (antibody, V domains shown)
VH: QVQLVESGGGVVQPGRSLRLSCAASGFTFRNYGMHWVRQAPGKGLEWVAVIWFDGINKYYADSVKGRFTISRDNSENTLYLQMNSLRAEDTAVYYCARDRSSSPFDFWGQGTLVTVSS
VL: EIVMTQSPATLSLSPGERATLSCRASQNFSNNYLSWYQQTPGQAPRLLIYGASTRATGIPARFSGSGSGTDFTLTISSLQPEDFAVYYCQQDYNLFTFGPGTKVDIK
notes: Fully human variable regions from Trianni mice; Constant region as tested not clear: hybridoma-derived (mouse constant) or recombinant human IgG1 / IgG1 variant with human kappa; also called PD-L1 monospecific 1923Ab2; anti-PD-L1 antibody 1923Ab2

- EC50 [7]: 0.29 nM
- EC50 [8]: 0.22 nM
- binding result [15]: no binding
- Kd [16]: 7.18 nM
- koff [16]: 0.0219 s⁻¹
- kon [16]: 3.05e+06 M⁻¹ s⁻¹
B5: 1923Ab4 (antibody, V domains shown)
VH: QVQLVESGGGVVQPGRSLRLSCAASGFTFSNYGMHWVRQAPGKGLEWVAIIWYDGINKYYADSVKGRFTISRDNSKNTLYLQMNSLKAEDTAVYYCARDQDYDILTGYYKEDYFDFWGQGTLVTVSS
VL: SYELTQPPSVSVSPGQTARITCSGDALPKKYAYWYQQKSGQAPVLVIYEDSKRPSGIPERFSGSSSGTMATLTISGAQVEDEADYYCYSTDSSGNRVFGGGTKLTVL
notes: also called CD137 monospecific 1923Ab4; anti-CD137 1923Ab4

Reference: patent US20250002599A1 (NOVAROCK BIOTHERAPEUTICS, published 2025)
